Publication PMC3154423

What was measured:
Test in all cases: ITC
[1] = target: Jun-Jun bZIP R263A (human, UniProt P05412 252-315, R263A)
[2] = target: Jun bZIP R270A;Fos bZIP R144A (human;human, UniProt P05412;P01100 252-315;137-200, R270A|R144A)
[3] = target: Jun bZIP R270A;Fos bZIP R155A (human;human, UniProt P05412;P01100 252-315;137-200, R270A|R155A)
[4] = target: Jun-Jun bZIP WT (human, UniProt P05412 252-315)
[5] = target: Jun bZIP R261A;Fos bZIP R158A (human;human, UniProt P05412;P01100 252-315;137-200, R261A|R158A)
Sequence of Jun bZIP R261A;Fos bZIP R158A (P05412 252-315 R261A, chain 1 of 2): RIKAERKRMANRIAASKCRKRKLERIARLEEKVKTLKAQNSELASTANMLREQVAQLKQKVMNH
Sequence of Jun bZIP R261A;Fos bZIP R158A (P01100 137-200 R158A, chain 2 of 2): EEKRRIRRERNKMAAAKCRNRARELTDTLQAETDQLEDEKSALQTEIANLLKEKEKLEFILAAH

[6] = target: Jun bZIP R261A;Fos bZIP R146A (human;human, UniProt P05412;P01100 252-315;137-200, R261A|R146A)
Sequence of Jun bZIP R261A;Fos bZIP R146A (P05412 252-315 R261A, chain 1 of 2): as the sequence (P05412 252-315 R261A, chain 1 of 2) above
Sequence of Jun bZIP R261A;Fos bZIP R146A (P01100 137-200 R146A, chain 2 of 2): as the sequence (P01100 137-200 R158A, chain 2 of 2) above, with R10A, A22R counted along it

[7] = target: Jun bZIP R263A;Fos bZIP R158A (human;human, UniProt P05412;P01100 252-315;137-200, R263A|R158A)
Sequence of Jun bZIP R263A;Fos bZIP R158A (P05412 252-315 R263A, chain 1 of 2): as the sequence (P05412 252-315 R261A, chain 1 of 2) above, with A10R, R12A counted along it
Sequence of Jun bZIP R263A;Fos bZIP R158A (P01100 137-200 R158A, chain 2 of 2): as the sequence (P01100 137-200 R158A, chain 2 of 2) above

[8] = target: Jun bZIP R261A;Fos bZIP R155A (human;human, UniProt P05412;P01100 252-315;137-200, R261A|R155A)
Sequence of Jun bZIP R261A;Fos bZIP R155A (P05412 252-315 R261A, chain 1 of 2): as the sequence (P05412 252-315 R261A, chain 1 of 2) above
Sequence of Jun bZIP R261A;Fos bZIP R155A (P01100 137-200 R155A, chain 2 of 2): as the sequence (P01100 137-200 R158A, chain 2 of 2) above, with R19A, A22R counted along it

[9] = target: Jun bZIP K258A;Fos bZIP K148A (human;human, UniProt P05412;P01100 252-315;137-200, K258A|K148A)
Sequence of Jun bZIP K258A;Fos bZIP K148A (P05412 252-315 K258A, chain 1 of 2): as the sequence (P05412 252-315 R261A, chain 1 of 2) above, with K7A, A10R counted along it
Sequence of Jun bZIP K258A;Fos bZIP K148A (P01100 137-200 K148A, chain 2 of 2): as the sequence (P01100 137-200 R158A, chain 2 of 2) above, with K12A, A22R counted along it

[10] = target: Jun bZIP K273A;Fos bZIP R144A (human;human, UniProt P05412;P01100 252-315;137-200, K273A|R144A)
Sequence of Jun bZIP K273A;Fos bZIP R144A (P05412 252-315 K273A, chain 1 of 2): as the sequence (P05412 252-315 R261A, chain 1 of 2) above, with A10R, K22A counted along it
Sequence of Jun bZIP K273A;Fos bZIP R144A (P01100 137-200 R144A, chain 2 of 2): as the sequence (P01100 137-200 R158A, chain 2 of 2) above, with R8A, A22R counted along it

[11] = target: Jun bZIP R272A;Fos bZIP K153A (human;human, UniProt P05412;P01100 252-315;137-200, R272A|K153A)
Sequence of Jun bZIP R272A;Fos bZIP K153A (P05412 252-315 R272A, chain 1 of 2): as the sequence (P05412 252-315 R261A, chain 1 of 2) above, with A10R, R21A counted along it
Sequence of Jun bZIP R272A;Fos bZIP K153A (P01100 137-200 K153A, chain 2 of 2): as the sequence (P01100 137-200 R158A, chain 2 of 2) above, with K17A, A22R counted along it

[12] = target: Jun bZIP K273A;Fos bZIP R155A (human;human, UniProt P05412;P01100 252-315;137-200, K273A|R155A)
Sequence of Jun bZIP K273A;Fos bZIP R155A (P05412 252-315 K273A, chain 1 of 2): as the sequence (P05412 252-315 R261A, chain 1 of 2) above, with A10R, K22A counted along it
Sequence of Jun bZIP K273A;Fos bZIP R155A (P01100 137-200 R155A, chain 2 of 2): as the sequence (P01100 137-200 R158A, chain 2 of 2) above, with R19A, A22R counted along it

[13] = target: Jun bZIP K268A;Fos bZIP K148A (human;human, UniProt P05412;P01100 252-315;137-200, K268A|K148A)
Sequence of Jun bZIP K268A;Fos bZIP K148A (P05412 252-315 K268A, chain 1 of 2): as the sequence (P05412 252-315 R261A, chain 1 of 2) above, with A10R, K17A counted along it
Sequence of Jun bZIP K268A;Fos bZIP K148A (P01100 137-200 K148A, chain 2 of 2): as the sequence (P01100 137-200 R158A, chain 2 of 2) above, with K12A, A22R counted along it

[14] = target: Jun bZIP R272A;Fos bZIP R146A (human;human, UniProt P05412;P01100 252-315;137-200, R272A|R146A)
Sequence of Jun bZIP R272A;Fos bZIP R146A (P05412 252-315 R272A, chain 1 of 2): as the sequence (P05412 252-315 R261A, chain 1 of 2) above, with A10R, R21A counted along it
Sequence of Jun bZIP R272A;Fos bZIP R146A (P01100 137-200 R146A, chain 2 of 2): as the sequence (P01100 137-200 R158A, chain 2 of 2) above, with R10A, A22R counted along it

[15] = target: Jun bZIP R263A;Fos bZIP R143A (human;human, UniProt P05412;P01100 252-315;137-200, R263A|R143A)
Sequence of Jun bZIP R263A;Fos bZIP R143A (P05412 252-315 R263A, chain 1 of 2): as the sequence (P05412 252-315 R261A, chain 1 of 2) above, with A10R, R12A counted along it
Sequence of Jun bZIP R263A;Fos bZIP R143A (P01100 137-200 R143A, chain 2 of 2): as the sequence (P01100 137-200 R158A, chain 2 of 2) above, with R7A, A22R counted along it

[16] = target: Jun bZIP R259A;Fos bZIP R143A (human;human, UniProt P05412;P01100 252-315;137-200, R259A|R143A)
Sequence of Jun bZIP R259A;Fos bZIP R143A (P05412 252-315 R259A, chain 1 of 2): as the sequence (P05412 252-315 R261A, chain 1 of 2) above, with R8A, A10R counted along it
Sequence of Jun bZIP R259A;Fos bZIP R143A (P01100 137-200 R143A, chain 2 of 2): as the sequence (P01100 137-200 R158A, chain 2 of 2) above, with R7A, A22R counted along it

[17] = target: Jun bZIP K268A;Fos bZIP R146A (human;human, UniProt P05412;P01100 252-315;137-200, K268A|R146A)
Sequence of Jun bZIP K268A;Fos bZIP R146A (P05412 252-315 K268A, chain 1 of 2): as the sequence (P05412 252-315 R261A, chain 1 of 2) above, with A10R, K17A counted along it
Sequence of Jun bZIP K268A;Fos bZIP R146A (P01100 137-200 R146A, chain 2 of 2): as the sequence (P01100 137-200 R158A, chain 2 of 2) above, with R10A, A22R counted along it

Sequence of Jun bZIP R270A;Fos bZIP R155A (P05412 252-315 R270A, chain 1 of 2): as the sequence (P05412 252-315 R261A, chain 1 of 2) above, with A10R, R19A counted along it
Sequence of Jun bZIP R270A;Fos bZIP R155A (P01100 137-200 R155A, chain 2 of 2): as the sequence (P01100 137-200 R158A, chain 2 of 2) above, with R19A, A22R counted along it
Sequence of Jun bZIP R270A;Fos bZIP R144A (P05412 252-315 R270A, chain 1 of 2): as the sequence (P05412 252-315 R261A, chain 1 of 2) above, with A10R, R19A counted along it
Sequence of Jun bZIP R270A;Fos bZIP R144A (P01100 137-200 R144A, chain 2 of 2): as the sequence (P01100 137-200 R158A, chain 2 of 2) above, with R8A, A22R counted along it
Sequence of Jun-Jun bZIP R263A (P05412 252-315 R263A): as the sequence (P05412 252-315 R261A, chain 1 of 2) above, with A10R, R12A counted along it
Sequence of Jun-Jun bZIP WT (P05412 252-315): as the sequence (P05412 252-315 R261A, chain 1 of 2) above, with A10R counted along it

B1: TRE duplex 15-mer (dsDNA)
DNA 1: CGCGTGACTCACCCC
DNA 2: GGGGTGAGTCACGCG
B1 showed a Kd [1] of 2140 ± 100 nM, a Kd [2] of 6700 ± 410 nM and a Kd [3] of 28900 ± 470 nM. It also gave a Kd [4] of 190 ± 20 nM, a Kd [5] of 760 ± 20 nM and a Kd [6] of 1030 ± 20 nM. For the same binder, the Kd [7] was 1120 ± 70 nM, the Kd [8] was 2460 ± 30 nM and the Kd [9] was 660 ± 20 nM. It also gave a Kd [10] of 3590 ± 300 nM, a Kd [11] of 960 ± 110 nM and a Kd [12] of 6790 ± 420 nM. It also gave a Kd [13] of 460 ± 20 nM, a Kd [14] of 750 ± 100 nM and a Kd [15] of 2250 ± 50 nM. The Kd [16] was 3490 ± 140 nM and the Kd [17] was 420 ± 20 nM.
